US20260325634 (published 2026)

Biological target: T1, CD123 (IL-3R alpha) (human, UniProt P26951)
T1 chain: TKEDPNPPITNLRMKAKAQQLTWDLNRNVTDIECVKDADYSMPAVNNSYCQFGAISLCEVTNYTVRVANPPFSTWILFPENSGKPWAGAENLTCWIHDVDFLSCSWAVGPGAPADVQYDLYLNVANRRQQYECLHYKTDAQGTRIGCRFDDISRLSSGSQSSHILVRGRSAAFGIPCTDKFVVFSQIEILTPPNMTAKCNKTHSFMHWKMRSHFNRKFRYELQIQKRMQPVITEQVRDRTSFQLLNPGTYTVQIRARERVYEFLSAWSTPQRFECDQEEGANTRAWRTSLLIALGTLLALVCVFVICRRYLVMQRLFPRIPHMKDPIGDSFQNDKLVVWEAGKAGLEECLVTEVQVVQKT
Assay: BLI

- Kd: < 1 pM
B1: AB1 (18B4D5) (antibody, V domains shown)
VH: EVKLQESGPGLVKPSQSLSLTCTVTGYSITSDYTWNWIRQFPGNKLEWMGYISFSGSTSYNPSLKSRLSITRDTSKNQFFLQLNSVTTEDTATYYCARGLDYWGQGTTLTVSS
VL: DIVMTQSPAIMSASLGERVTMTCTASSSISSSYLYWYQQKPGSSPKLWIYSTSNLASGVPARFSGSGSGTSYSLTISSMEAEDAATYYCHQLHRSPWTFGGGTKLEIKR
